Source: patent US20240165282A1, “CONFORMATIONAL CONSTRAINED SOMATOSTATIN RECEPTOR 3 PEPTIDE LIGANDS AND THEIR CONJUGATES AND USES THEREOF” (STARGET PHARMA LTD., priority 2021, published 2024)
*1 amine or outer side, *2 acyl side, *3 side chain or, on linkers, in order; H or OH if unused. Bridges are numbered along the chain shown (N, C = ends). [ ]: non-standard residue; d: D form. The star is where a group is joined. DOTA = O=C(O)CN1CCN(CC(=O)O)CCN(CC(=O)*)CCN(CC(=O)O)CC1; N(2-mercaptoethyl)Gly = O=C(CN(CCS[*:3])[*:1])[*:2]

Columns and labels:
Assay in all cases: cell-based or functional assay
[1] = target: HTR2C (human) (UniProt P28335)
[2] = target: FPRL1 (human) (UniProt P25090)
[3] = target: CRTH2 (human) (UniProt Q9Y5Y4)
[4] = target: DRD3 (human) (UniProt P35462)
[5] = target: CRHR2 (human) (UniProt Q13324)
[6] = target: MLNR (human) (UniProt O43193)
[7] = target: OXTR (human) (UniProt P30559)
[8] = target: KISS1R (human) (UniProt Q969F8)
[9] = target: GPR103 (human) (UniProt Q96P65)
[10] = target: UTR2 (human) (UniProt Q9UKP6)
[11] = target: P2RY4 (human) (UniProt P51582)
[12] = target: CCKAR (human) (UniProt P32238)
[13] = target: OXER1 (human) (UniProt Q8TDS5)
[14] = target: NPY2R (human) (UniProt P49146)
[15] = target: BDKRB2 (human) (UniProt P30411)
[16] = target: BDKRB1 (human) (UniProt P46663)
[17] = target: MRGPRX2 (human) (UniProt Q96LB1)
[18] = target: PPYR1 (human) (UniProt P50391)
[19] = target: RXFP3 (human) (UniProt Q9NSD7)
[20] = target: PTGIR (human) (UniProt P43119)
[21] = target: GLP2R (human) (UniProt O95838)
[22] = target: NPY1R (human) (UniProt P25929)
[23] = target: HTR1B (human) (UniProt P28222)
[24] = target: OPRK1 (human) (UniProt P41145)
[25] = target: EDG5 (human) (UniProt O95136)
[26] = target: FFAR1 (human) (UniProt O14842)
[27] = target: human cloned somatostatin receptor 3 (human) (UniProt P32745)
[28] = target: MC5R (human) (UniProt P33032)
[29] = target: P2RY1 (human) (UniProt P47900)
[30] = target: CHRM4 (human) (UniProt P08173)
[31] = target: EDG3 (human) (UniProt Q99500)
[32] = target: GPR92 (human) (UniProt Q9H1C0)
[33] = target: CXCR6 (human) (UniProt O00574)
[34] = target: DRD2L (human) (UniProt P14416)
[35] = target: CCKBR (human) (UniProt P32239)
[36] = target: C5aR1 (human) (UniProt P21730)
[37] = target: CCR3 (human) (UniProt P51677)
[38] = target: CNR2 (human) (UniProt P34972)
[39] = target: CXCR7 (human) (UniProt P25106)
[40] = target: F2RL1 (human) (UniProt P55085)
[41] = target: EDG4 (human) (UniProt Q9HBW0)
[42] = target: CCR4 (human) (UniProt P51679)
[43] = target: ADRA2C (human) (UniProt P18825)
[44] = target: NPBWR1 (human) (UniProt P48145)
[45] = target: PROKR1 (human) (UniProt Q8TCW9)
[46] = target: OPRD1 (human) (UniProt P41143)
[47] = target: FPR1 (human) (UniProt P21462)
[48] = target: ADRA1B (human) (UniProt P35368)
[49] = target: GALR2 (human) (UniProt O43603)
[50] = target: PTHR2 (human) (UniProt P49190)
[51] = target: MC1R (human) (UniProt Q01726)
[52] = target: CHRM2 (human) (UniProt P08172)
[53] = target: MC3R (human) (UniProt P41968)
[54] = target: CCR8 (human) (UniProt P51685)
[55] = target: HRH4 (human) (UniProt Q9H3N8)
[56] = target: PTAFR (human) (UniProt P25105)
[57] = target: F2RL3 (human) (UniProt Q96RI0)
[58] = target: BRS3 (human) (UniProt P32247)
[59] = target: P2RY11 (human) (UniProt Q96G91)

Sequence of human cloned somatostatin receptor 3 (human) (P32745 whole entry): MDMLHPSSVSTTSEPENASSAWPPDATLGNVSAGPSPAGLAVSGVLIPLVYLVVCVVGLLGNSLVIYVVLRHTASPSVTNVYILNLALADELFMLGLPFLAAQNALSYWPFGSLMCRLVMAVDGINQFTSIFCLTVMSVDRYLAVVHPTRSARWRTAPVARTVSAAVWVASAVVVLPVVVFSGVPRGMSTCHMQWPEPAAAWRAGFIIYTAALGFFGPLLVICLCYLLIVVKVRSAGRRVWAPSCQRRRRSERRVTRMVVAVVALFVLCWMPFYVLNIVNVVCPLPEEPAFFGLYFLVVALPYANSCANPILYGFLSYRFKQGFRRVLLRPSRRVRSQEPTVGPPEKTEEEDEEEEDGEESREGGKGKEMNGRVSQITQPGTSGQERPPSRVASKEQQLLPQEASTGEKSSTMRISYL
Sequence of DRD3 (human) (P35462 whole entry): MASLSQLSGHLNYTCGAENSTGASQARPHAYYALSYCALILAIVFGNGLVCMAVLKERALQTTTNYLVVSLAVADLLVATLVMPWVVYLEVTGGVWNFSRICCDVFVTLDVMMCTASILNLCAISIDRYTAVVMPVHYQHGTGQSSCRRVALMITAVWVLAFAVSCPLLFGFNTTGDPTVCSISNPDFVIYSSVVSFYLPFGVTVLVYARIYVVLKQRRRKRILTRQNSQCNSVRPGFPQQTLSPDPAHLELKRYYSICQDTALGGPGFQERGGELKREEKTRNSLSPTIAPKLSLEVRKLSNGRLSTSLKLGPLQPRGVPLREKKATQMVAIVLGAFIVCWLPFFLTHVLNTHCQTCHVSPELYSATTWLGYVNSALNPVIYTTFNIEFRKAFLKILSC
Sequence of OXTR (human) (P30559 whole entry): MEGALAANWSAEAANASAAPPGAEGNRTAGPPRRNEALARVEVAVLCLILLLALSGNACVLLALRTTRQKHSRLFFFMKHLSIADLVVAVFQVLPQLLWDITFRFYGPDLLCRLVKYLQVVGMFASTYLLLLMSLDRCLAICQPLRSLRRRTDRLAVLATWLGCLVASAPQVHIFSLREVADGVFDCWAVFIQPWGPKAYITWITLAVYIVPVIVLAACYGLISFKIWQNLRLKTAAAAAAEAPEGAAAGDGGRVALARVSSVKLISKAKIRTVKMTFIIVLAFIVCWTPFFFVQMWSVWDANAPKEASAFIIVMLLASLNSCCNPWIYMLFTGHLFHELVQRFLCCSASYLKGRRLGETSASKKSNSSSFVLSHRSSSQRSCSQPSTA
Sequence of MRGPRX2 (human) (Q96LB1 whole entry): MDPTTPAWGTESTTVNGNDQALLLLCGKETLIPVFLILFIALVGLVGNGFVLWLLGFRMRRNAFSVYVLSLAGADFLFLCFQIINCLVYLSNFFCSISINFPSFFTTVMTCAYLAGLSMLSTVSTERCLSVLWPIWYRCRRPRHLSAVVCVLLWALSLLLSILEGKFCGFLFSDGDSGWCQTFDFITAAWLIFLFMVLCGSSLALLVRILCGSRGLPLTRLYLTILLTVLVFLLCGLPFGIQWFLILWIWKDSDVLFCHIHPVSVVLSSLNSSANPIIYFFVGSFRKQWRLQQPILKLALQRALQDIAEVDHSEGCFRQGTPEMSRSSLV
Sequence of GPR92 (human) (Q9H1C0 whole entry): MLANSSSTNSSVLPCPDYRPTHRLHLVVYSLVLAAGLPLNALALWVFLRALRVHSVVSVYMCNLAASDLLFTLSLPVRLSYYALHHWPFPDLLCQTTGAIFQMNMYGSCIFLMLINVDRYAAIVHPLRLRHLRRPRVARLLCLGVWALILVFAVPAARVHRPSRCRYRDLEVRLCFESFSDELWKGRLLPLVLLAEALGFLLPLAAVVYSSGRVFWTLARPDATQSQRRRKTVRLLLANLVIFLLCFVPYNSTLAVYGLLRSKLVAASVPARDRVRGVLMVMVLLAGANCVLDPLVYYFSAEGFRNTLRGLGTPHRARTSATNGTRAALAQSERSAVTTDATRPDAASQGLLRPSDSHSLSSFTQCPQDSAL
Sequence of GPR103 (human) (Q96P65 whole entry): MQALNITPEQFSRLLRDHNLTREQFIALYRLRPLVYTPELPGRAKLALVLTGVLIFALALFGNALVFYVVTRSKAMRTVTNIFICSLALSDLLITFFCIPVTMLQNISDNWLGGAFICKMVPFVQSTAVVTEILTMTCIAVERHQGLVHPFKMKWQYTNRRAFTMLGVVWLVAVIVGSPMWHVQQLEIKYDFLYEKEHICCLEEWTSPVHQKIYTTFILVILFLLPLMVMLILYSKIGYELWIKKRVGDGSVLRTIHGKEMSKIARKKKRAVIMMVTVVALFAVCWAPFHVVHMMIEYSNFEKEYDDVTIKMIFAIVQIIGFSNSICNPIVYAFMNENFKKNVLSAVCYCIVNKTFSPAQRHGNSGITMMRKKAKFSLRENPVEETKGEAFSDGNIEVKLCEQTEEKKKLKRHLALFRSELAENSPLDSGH
Sequence of BRS3 (human) (P32247 whole entry): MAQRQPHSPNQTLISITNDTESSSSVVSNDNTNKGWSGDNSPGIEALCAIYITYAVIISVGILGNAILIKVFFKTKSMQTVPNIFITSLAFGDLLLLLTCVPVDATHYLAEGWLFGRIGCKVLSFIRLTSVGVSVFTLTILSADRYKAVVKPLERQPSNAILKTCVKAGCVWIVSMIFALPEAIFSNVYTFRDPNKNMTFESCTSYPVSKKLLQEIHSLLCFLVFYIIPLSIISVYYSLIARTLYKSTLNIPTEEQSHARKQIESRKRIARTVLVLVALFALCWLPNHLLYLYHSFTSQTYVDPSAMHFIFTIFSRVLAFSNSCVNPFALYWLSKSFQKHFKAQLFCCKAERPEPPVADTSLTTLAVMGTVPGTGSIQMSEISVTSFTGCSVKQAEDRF
Sequence of OPRD1 (human) (P41143 whole entry): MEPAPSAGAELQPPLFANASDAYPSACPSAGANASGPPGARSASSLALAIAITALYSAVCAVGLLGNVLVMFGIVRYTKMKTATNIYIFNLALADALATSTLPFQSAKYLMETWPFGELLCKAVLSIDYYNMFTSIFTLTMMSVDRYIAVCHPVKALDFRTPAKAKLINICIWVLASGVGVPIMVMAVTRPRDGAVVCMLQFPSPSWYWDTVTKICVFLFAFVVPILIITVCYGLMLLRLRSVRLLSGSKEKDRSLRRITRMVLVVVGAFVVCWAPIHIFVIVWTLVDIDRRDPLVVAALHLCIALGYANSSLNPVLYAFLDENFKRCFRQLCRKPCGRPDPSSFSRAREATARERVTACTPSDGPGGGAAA
Sequence of PPYR1 (human) (P50391 whole entry): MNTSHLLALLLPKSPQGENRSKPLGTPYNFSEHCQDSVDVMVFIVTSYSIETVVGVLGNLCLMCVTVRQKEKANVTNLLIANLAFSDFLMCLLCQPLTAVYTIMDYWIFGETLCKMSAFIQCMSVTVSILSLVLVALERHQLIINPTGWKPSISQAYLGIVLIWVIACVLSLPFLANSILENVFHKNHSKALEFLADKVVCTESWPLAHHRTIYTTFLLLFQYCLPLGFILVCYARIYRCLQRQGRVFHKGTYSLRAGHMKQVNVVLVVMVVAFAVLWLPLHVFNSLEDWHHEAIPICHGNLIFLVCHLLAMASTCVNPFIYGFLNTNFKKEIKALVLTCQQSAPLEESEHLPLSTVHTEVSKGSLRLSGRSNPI
Sequence of MLNR (human) (O43193 whole entry): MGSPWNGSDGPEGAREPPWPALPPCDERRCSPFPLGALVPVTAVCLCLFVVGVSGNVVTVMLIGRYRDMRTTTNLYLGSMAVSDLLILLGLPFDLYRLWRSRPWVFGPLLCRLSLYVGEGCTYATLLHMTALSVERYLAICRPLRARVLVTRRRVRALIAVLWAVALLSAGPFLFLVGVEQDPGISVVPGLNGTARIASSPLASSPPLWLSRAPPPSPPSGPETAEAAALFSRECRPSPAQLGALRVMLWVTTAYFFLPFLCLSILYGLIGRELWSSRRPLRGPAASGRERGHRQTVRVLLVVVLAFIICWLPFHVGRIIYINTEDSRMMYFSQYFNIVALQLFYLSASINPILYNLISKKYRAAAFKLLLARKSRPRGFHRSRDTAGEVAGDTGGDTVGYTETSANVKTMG
Sequence of HRH4 (human) (Q9H3N8 whole entry): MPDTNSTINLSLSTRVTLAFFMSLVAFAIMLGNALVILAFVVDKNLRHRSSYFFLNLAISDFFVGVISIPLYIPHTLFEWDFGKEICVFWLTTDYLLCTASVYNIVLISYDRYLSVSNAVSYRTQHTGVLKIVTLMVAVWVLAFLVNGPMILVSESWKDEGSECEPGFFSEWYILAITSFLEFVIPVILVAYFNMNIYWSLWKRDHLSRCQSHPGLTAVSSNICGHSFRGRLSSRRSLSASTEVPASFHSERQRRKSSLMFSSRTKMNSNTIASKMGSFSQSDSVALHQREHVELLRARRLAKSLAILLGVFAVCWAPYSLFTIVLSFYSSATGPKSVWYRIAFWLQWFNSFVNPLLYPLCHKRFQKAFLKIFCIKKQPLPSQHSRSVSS
Sequence of PTGIR (human) (P43119 1-383): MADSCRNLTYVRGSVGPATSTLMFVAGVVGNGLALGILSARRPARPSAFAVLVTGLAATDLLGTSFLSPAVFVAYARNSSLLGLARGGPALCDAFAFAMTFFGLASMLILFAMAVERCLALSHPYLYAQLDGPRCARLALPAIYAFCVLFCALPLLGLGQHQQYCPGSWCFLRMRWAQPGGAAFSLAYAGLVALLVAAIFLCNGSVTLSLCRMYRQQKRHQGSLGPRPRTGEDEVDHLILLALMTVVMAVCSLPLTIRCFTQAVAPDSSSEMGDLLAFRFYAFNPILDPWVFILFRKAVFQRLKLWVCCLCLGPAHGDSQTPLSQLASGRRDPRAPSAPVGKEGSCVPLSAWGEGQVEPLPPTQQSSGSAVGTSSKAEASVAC

{DOTA}-[dF]RCF[dW]KTF[N(2-mercaptoethyl)Gly]-NH2 (disulfide 3-9; also: Ga complex of DOTA) [SEQ ID NO: 4] was tested, and the % Activity (agonist mode, 1 µM) [1] was 0%, the % Activity (agonist mode, 1 µM) [2] was 0% and the % Activity (agonist mode, 1 µM) [3] was -1%. For the same binder, the % Activity (agonist mode, 1 µM) [4] was 9%, the % Activity (agonist mode, 1 µM) [5] was 0% and the % Activity (agonist mode, 1 µM) [6] was 1%. The % Activity (agonist mode, 1 µM) [7] was 0%, the % Activity (agonist mode, 1 µM) [8] was 0% and the % Activity (agonist mode, 1 µM) [9] was 4%. The % Activity (agonist mode, 1 µM) [10] was 0%, the % Activity (agonist mode, 1 µM) [11] was 1% and the % Activity (agonist mode, 1 µM) [12] was 0%. For the same binder, the % Activity (agonist mode, 1 µM) [13] was -2%, the % Activity (agonist mode, 1 µM) [14] was 1% and the % Activity (agonist mode, 1 µM) [15] was 0%. The % Activity (agonist mode, 1 µM) [16] was -5%, the % Activity (agonist mode, 1 µM) [17] was 1% and the % Activity (agonist mode, 1 µM) [18] was 1%. The % Activity (agonist mode, 1 µM) [19] was -3%, the % Activity (agonist mode, 1 µM) [20] was 0% and the % Activity (agonist mode, 1 µM) [21] was -1%. For the same binder, the % Activity (agonist mode, 1 µM) [22] was -5%, the % Activity (agonist mode, 1 µM) [23] was -1% and the % Activity (agonist mode, 1 µM) [24] was -2%. It also gave a % Activity (agonist mode, 1 µM) [25] of -2%, a % Activity (agonist mode, 1 µM) [26] of -4% and a % Activity (agonist mode, 1 µM) [27] of 200%. The Cellular Internalization EC50 (β-Arrestin Luminescence Assay) [27] was 16 nM, the Efficacy - maximal response [27] was 75200 RLU and the intensity of beta-arrestin response against SRIF-14 [27] was 2 fold. For the same binder, the % Activity (agonist mode, 1 µM) [28] was -5%, the % Activity (agonist mode, 1 µM) [29] was -2% and the % Activity (agonist mode, 1 µM) [30] was -3%. For the same binder, the % Activity (agonist mode, 1 µM) [31] was -1%, the % Activity (agonist mode, 1 µM) [32] was 1% and the % Activity (agonist mode, 1 µM) [33] was 1%. The % Activity (agonist mode, 1 µM) [34] was -1%, the % Activity (agonist mode, 1 µM) [35] was 2% and the % Activity (agonist mode, 1 µM) [36] was 0%. It also gave a % Activity (agonist mode, 1 µM) [37] of 2%, a % Activity (agonist mode, 1 µM) [38] of 2% and a % Activity (agonist mode, 1 µM) [39] of -1%. For the same binder, the % Activity (agonist mode, 1 µM) [40] was -4%, the % Activity (agonist mode, 1 µM) [41] was 6% and the % Activity (agonist mode, 1 µM) [42] was 0%. For the same binder, the % Activity (agonist mode, 1 µM) [43] was -8%, the % Activity (agonist mode, 1 µM) [44] was 2% and the % Activity (agonist mode, 1 µM) [45] was 0%. For the same binder, the % Activity (agonist mode, 1 µM) [46] was -1%, the % Activity (agonist mode, 1 µM) [47] was -1% and the % Activity (agonist mode, 1 µM) [48] was -2%. The % Activity (agonist mode, 1 µM) [49] was -4%, the % Activity (agonist mode, 1 µM) [50] was 0% and the % Activity (agonist mode, 1 µM) [51] was 1%. It also gave a % Activity (agonist mode, 1 µM) [52] of 0%, a % Activity (agonist mode, 1 µM) [53] of 0% and a % Activity (agonist mode, 1 µM) [54] of 0%. The % Activity (agonist mode, 1 µM) [55] was -2%, the % Activity (agonist mode, 1 µM) [56] was -2% and the % Activity (agonist mode, 1 µM) [57] was 2%. For the same binder, the % Activity (agonist mode, 1 µM) [58] was 1% and the % Activity (agonist mode, 1 µM) [59] was 0%.
